Test [1] addresses T1, human CPSF160-WDR33 (1-572) complex (human, UniProt Q10570 1-1443; Q9C0J8 1-572). Kind of test: SEC. Background: In gel filtration, larger molecules generally elute earlier.
Test [2] addresses T1, human CPSF160-WDR33 (1-572) complex. Kind of test: cryo-EM structure.
The target is the same in test [3]. Kind of test: pull-down.

Four molecules from article PMC7036032 (Molecular cell, 2019) can be followed below.

T1 sequence (Q10570 whole entry, chain 1 of 2): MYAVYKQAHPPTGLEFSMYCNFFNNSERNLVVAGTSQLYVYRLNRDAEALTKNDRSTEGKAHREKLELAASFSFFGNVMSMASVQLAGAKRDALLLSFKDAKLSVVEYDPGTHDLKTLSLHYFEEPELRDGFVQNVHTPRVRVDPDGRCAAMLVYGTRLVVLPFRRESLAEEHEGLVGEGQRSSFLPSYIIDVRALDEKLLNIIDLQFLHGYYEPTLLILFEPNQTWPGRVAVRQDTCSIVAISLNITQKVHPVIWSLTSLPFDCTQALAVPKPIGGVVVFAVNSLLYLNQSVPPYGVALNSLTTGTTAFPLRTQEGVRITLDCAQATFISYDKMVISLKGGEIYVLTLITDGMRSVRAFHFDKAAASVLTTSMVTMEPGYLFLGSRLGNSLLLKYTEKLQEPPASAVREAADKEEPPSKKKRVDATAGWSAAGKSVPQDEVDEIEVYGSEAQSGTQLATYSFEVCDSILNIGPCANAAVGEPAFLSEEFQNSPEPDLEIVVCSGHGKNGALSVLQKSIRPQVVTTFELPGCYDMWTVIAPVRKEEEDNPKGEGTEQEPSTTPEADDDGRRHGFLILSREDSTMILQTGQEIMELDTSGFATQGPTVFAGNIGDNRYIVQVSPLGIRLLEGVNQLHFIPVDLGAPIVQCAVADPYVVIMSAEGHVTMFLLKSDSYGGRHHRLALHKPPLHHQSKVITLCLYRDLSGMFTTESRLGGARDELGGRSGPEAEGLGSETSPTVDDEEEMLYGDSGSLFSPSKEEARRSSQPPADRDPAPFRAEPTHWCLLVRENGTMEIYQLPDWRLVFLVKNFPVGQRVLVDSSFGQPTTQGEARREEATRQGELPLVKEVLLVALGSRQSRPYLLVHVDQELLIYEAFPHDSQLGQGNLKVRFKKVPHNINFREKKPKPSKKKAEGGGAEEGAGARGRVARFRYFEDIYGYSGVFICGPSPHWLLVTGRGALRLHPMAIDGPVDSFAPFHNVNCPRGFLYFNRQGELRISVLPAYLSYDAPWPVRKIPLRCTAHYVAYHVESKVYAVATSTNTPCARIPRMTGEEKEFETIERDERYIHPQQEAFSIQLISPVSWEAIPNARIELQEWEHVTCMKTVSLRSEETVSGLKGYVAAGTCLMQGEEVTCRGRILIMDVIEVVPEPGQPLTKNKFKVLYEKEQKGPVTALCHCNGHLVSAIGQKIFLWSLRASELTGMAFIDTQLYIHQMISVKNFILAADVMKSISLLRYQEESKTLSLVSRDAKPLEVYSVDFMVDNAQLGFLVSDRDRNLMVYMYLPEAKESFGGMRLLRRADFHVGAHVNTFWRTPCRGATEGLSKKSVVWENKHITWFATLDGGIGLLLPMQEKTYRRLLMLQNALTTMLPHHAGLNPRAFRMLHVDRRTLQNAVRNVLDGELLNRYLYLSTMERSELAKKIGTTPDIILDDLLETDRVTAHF
T1 sequence (Q9C0J8 1-572, chain 2 of 2): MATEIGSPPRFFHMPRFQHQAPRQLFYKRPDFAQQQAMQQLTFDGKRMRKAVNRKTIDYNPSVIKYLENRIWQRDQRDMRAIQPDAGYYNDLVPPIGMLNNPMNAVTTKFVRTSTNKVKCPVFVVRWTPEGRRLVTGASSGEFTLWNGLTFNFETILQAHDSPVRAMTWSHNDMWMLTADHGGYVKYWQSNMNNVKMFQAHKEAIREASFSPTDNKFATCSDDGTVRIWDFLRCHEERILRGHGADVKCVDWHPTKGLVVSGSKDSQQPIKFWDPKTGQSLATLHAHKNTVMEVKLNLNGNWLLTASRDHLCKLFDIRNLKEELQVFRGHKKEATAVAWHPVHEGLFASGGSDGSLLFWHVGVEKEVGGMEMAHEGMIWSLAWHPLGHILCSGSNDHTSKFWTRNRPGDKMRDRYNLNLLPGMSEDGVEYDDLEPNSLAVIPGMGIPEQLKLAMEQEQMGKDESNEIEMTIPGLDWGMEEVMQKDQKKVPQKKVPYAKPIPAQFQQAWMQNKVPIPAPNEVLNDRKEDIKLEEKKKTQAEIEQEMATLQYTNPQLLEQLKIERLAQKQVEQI

B1: human CPSF30-Fip1(1-243) complex (complex)
chain 1: MQEIIASVDHIKFDLEIAVEQQLGAQPLPFPGMDKSGAAVCEFFLKAACGKGGMCPFRHISGEKTVVCKHWLRGLCKKGDQCEFLHEYDMTKMPECYFYSKFGECSNKECPFLHIDPESKIKDCPWYDRGFCKHGPLCRHRHTRRVICVNYLVGFCPEGPSCKFMHPRFELPMGTTEQPPLPQQTQPPAKQRTPQVIGVMQSQNSSAGNRGPRPLEQVTCYKCGEKGHYANRCTKGHLAFLSGQ
chain 2: MSAGEVERLVSELSGGTGGDEEEEWLYGGPWDVHVHSDLAKDLDENEVERPEEENASANPPSGIEDETAENGVPKPKVTETEDDSDSDSDDDEDDVHVTIGDIKTGAPQYGSYGTAPVNLNIKTGGRVYGTTGTKVKGVDLDAPGSINGVPLLEVDLDSFEDKPWRKPGADLSDYFNYGFNEDTWKAYCEKQKRIRMGLEVIPVTSTTNKITAEDCTMEVTPGAEIQDGRFNLFKVQQGRTGN
B1: in test [1], the binding result is given as “binds”.

B2: CPSF30 (isoform 2) (natural protein, human, UniProt O95639-2 1-244, looked up)
chain: B1 chain 1
In the case of B2, the binding result in test [2] is “binds”.

B3: MBP-CPSF100 (full length) (natural protein, human, UniProt Q9P2I0 1-782, looked up)
chain: MTSIIKLTTLSGVQEESALCYLLQVDEFRFLLDCGWDEHFSMDIIDSLRKHVHQIDAVLLSHPDPLHLGALPYAVGKLGLNCAIYATIPVYKMGQMFMYDLYQSRHNTEDFTLFTLDDVDAAFDKIQQLKFSQIVNLKGKGHGLSITPLPAGHMIGGTIWKIVKDGEEEIVYAVDFNHKREIHLNGCSLEMLSRPSLLITDSFNATYVQPRRKQRDEQLLTNVLETLRGDGNVLIAVDTAGRVLELAQLLDQIWRTKDAGLGVYSLALLNNVSYNVVEFSKSQVEWMSDKLMRCFEDKRNNPFQFRHLSLCHGLSDLARVPSPKVVLASQPDLECGFSRDLFIQWCQDPKNSIILTYRTTPGTLARFLIDNPSEKITEIELRKRVKLEGKELEEYLEKEKLKKEAAKKLEQSKEADIDSSDESDIEEDIDQPSAHKTKHDLMMKGEGSRKGSFFKQAKKSYPMFPAPEERIKWDEYGEIIKPEDFLVPELQATEEEKSKLESGLTNGDEPMDQDLSDVPTKCISTTESIEIKARVTYIDYEGRSDGDSIKKIINQMKPRQLIIVHGPPEASQDLAECCRAFGGKDIKVYMPKLHETVDATSETHIYQVRLKDSLVSSLQFCKAKDAELAWIDGVLDMRVSKVDTGVILEEGELKDDGEDSEMQVEAPSDSSVIAQQKAMKSLFGDDEKETGEESEIIPTLEPLPPHEVPGHQSVFMNEPRLSDFKQVLLREGIQAEFVGGVLVCNNQVAVRRTETGRIGLEGCLCQDFYRIRDLLYEQYAIV
Regarding B3, the binding result in test [3] was “binds”.

B4: MBP-CPSF100 (460-486) (domain or fragment, human, UniProt Q9P2I0 460-486, looked up)
chain: SYPMFPAPEERIKWDEYGEIIKPEDFL
As for B4, in test [3], the binding result is reported as “binds”.
